Results published in patent US20240368675.

Test system: T1, Gs12-10 (uncultured bacterium (metagenome)?)
T1 sequence: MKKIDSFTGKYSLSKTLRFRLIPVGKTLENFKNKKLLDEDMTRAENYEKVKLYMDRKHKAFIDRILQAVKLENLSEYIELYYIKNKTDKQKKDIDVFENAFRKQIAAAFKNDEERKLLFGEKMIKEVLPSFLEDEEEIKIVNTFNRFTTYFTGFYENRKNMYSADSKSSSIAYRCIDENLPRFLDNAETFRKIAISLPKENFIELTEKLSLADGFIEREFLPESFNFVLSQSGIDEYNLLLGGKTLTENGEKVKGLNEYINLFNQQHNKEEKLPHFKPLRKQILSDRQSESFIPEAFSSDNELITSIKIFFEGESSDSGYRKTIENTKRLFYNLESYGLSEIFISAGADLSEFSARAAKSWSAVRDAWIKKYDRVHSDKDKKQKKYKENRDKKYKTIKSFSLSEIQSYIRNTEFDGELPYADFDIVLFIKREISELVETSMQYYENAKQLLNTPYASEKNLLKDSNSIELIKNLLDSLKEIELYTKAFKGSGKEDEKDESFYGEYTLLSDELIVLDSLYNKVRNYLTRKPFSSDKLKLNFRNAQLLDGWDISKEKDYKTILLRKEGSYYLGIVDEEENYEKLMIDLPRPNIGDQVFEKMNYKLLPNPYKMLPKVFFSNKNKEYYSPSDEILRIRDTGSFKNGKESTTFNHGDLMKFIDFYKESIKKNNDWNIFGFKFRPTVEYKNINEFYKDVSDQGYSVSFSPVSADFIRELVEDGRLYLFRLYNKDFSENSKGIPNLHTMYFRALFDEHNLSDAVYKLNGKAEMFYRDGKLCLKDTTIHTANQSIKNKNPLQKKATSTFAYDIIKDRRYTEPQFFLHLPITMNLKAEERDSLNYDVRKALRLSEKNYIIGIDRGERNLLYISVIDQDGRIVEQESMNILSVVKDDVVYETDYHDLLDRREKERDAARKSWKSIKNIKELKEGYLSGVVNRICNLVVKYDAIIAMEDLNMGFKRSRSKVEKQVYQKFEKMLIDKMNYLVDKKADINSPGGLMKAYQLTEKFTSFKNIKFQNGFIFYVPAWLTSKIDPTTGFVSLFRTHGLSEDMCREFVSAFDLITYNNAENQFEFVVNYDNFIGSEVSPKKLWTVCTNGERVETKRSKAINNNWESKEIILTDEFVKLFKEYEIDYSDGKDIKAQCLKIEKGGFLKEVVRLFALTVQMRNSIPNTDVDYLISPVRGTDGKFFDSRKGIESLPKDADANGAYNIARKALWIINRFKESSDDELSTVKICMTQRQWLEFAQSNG
Assay: cleavage_in_vitro
Conditions: PAM ATTT; CutSmart buffer, 37 C, 2 h

crRNA-ATTT pUC19 ; pUC19 circular plasmid
activity: 100 % linearised
